The supplement of paper PMC11811203

B1: THAP1; numbered along this chain (parent)
chain: MVQSCSAYGCKNRYDKDKPVSFHKFPLTRPSLCKEWEAAVRRKNFKPTKYSSICSEHFTPDCFKRECNNKLLKENAVPTIFLCTEPHDKKEDLLEPQEQLPPPPLPPPVSQVDAAIGLLMPPLQTPVNLSVFCDHNYTVEDTMHQRKRIHQLEQQVEKLRKKLKTAQQRCRRQERQLEKLKEVVHFQKEKDDVSERGYVILPNDYFEIVEVPA

Variants of: B1
Experiment: THAP1 transcriptional activity (GFP+/GFP- enrichment relative to wild-type constructs) (ratio to WT); higher = more THAP1 activity (PSMB5 reporter activation)
Conditions: with PSMB5 promoter-GFP reporter
Procedure, shortened: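 In duplicate, a lentivirus-delivered library with every residue from 2–213 of human THAP1 changed to all 20 amino acids was introduced at MOI ~0.3 into THAP1-knockout HEK-293T cells carrying endogenous PSMB5 tagged by mClover3 knock-in. Five days on, BFP+ cells were binned as GFP-dim or GFP-bright, and Illumina sequencing of genomic DNA amplicons counted each variant. Activity is the bright/dim read fold change, averaged over replicates and scaled to the mean of wild-type synonymous constructs.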

THAP1 transcriptional activity, by site and new letter:
L100: G 0.906, M 2.37, A 1.25, T 1.6, S 2.08, D 1.66, V 1.84, I 1.56, R 1.46, C 0.796, Q 1.41, H 0.606, Y 0.692, P 1.9, K 1.18, W 0.65
P86: E 2.07, G 0.464, K 0.623, C 0.542, L 0.608, H 0.865, S 0.97, V 1.04, A 0.874, N 0.592, W 0.533, R 0.766, I 2.01, M 2.06, Y 0.685, F 0.921, T 0.609
C83: T 1.67, M 0.953, I 1.18, Y 2.11, S 1.05, K 1, H 2.25, R 1.54, N 1.13, V 1.41, F 1.21, E 0.913, D 2.06, G 1.18, Q 3.29, P 0.676
P101: G 1.27, H 0.968, K 1.21, Q 1.61, F 0.64, T 1.5, S 1.96, W 0.985, Y 1.08, R 1.3, L 1.19, I 1.27, N 3.11, V 0.772, C 0.582, A 1.1
K89: I 1.1, R 0.657, T 1.3, A 0.888, S 2.9, D 1.33, M 0.476, Q 1.32, E 1.6, F 1.17, N 1.86, C 1.4, L 1.64, G 1.41, P 0.989, H 1.44, W 0.592, V 1.41
L93: E 1.43, T 1.14, D 1.14, S 0.575, G 1.26, H 1.01, V 1.15, I 1.37, K 0.898, C 1.36, Y 1.08, P 1.58, N 1.51, W 1.12, A 1.26, Q 1.67, F 0.989, M 0.701
H87: T 2.56, R 1.11, M 2.74, V 1.56, C 1.84, W 1.17, F 2.09, A 1.39, K 1.13, S 2.01, Y 1.16, P 3.55, E 2.22, N 2.68
Q97: T 1.88, W 0.632, G 0.874, N 0.877, M 1.09, P 1.25, E 1.24, Y 0.765, V 0.752, F 1.2, A 0.83, D 1.45, C 1.33, R 0.945, L 1.55, K 0.467, S 0.872, H 0.853, I 2.53
L94: D 1.28, M 1.84, V 1.47, G 1.56, C 0.962, S 1.71, W 0.914, T 1.14, I 2.23, P 1.67, Y 1.34, A 1.59, E 1.42, R 2.34
E91: W 0.619, T 0.885, K 2.46, M 0.596, G 1.01, A 0.844, F 0.403, Y 0.85, L 0.546, I 0.999, V 0.513, S 1.71, P 0.793, N 0.857, Q 1.02, D 1.04
D92: W 0.658, A 1.55, C 0.866, P 1.64, T 0.984, I 2.59, E 1.44, G 0.763, K 1.22, F 0.641, N 1.64, Y 0.942, R 1.57, M 0.739, V 0.743
P102: E 1.85, G 2.33, A 1.01, F 0.858, D 2, H 1.04, C 1.36
E85: G 1.14, F 0.389, T 0.594, A 0.937, Y 0.792, C 0.285, H 0.704, S 1.35, M 0.346, D 0.708, R 0.558, P 1.01, L 0.328, V 0.702, W 0.155, Q 1.16, I 1.04
L82: V 1.71, T 2.19, K 0.792, Q 1.59, H 1.27, N 1.88, P 2.38, Y 1.46, M 0.668, W 2.23, S 0.94, R 0.825
Q99: F 0.667, P 1.81, T 1.16, I 1.32, H 1.07, A 0.795, L 1.11, N 2.66, C 0.535, S 0.884, R 1.3, W 0.514, V 0.773, D 0.731, K 1.5, G 1.87, E 1.22
P96: W 0.452, N 2.72, H 0.971, Q 0.834, F 0.885, S 1.72, L 1.58, V 0.729, E 0.84, G 1.55, R 1.45, I 0.683, D 1.15, T 1.6, A 1.82, K 1.37, C 0.965
T84: S 0.852, I 0.739, E 4.49, D 0.604, K 2.57, F 1.21, Y 1.82, P 1.44, C 0.907, Q 1.65, M 1.23, G 0.785, H 0.92, L 1.48, W 1.97, R 1.39
E98: Y 0.675, M 0.62, N 1.21, P 0.816, R 0.908, G 1.03, K 1.43, V 1.56, W 0.567, Q 1.69, D 1.77, I 1.74, T 1.66, C 0.653, A 1.51, H 0.824, S 1.19, L 0.875, F 0.462
K90: F 0.963, W 0.775, E 2.91, L 0.82, Y 0.498, I 1.52, G 1.6, M 1.03, D 0.818, Q 2.35, C 1.03, P 1.06, H 0.995, T 1.43, N 1.49, S 1.77, R 0.598, A 1.95
D88: K 1.56, E 1.04, I 0.371, Q 1.12, S 1.92, N 0.665, W 0.937, Y 0.858, M 0.615, H 0.413, F 0.918, T 0.582, L 1.3, A 0.554, V 0.781, C 0.815
E95: C 1.23, K 1.66, D 1.16, M 0.897, A 1.46, Y 1.04, P 1.22, H 1.29, S 1.02, V 0.815, Q 1.81, G 1.26, R 1.65, L 0.979, I 1.13, N 1.31
